For data set [1], the system named is HeLa Kyoto. In words: solubility in G1/S (NP-40 vs SDS abundance) (log2 ratio); higher = more soluble. To be noted: cell cycle stage: G1/S.
In data set [2] the test system is HeLa Kyoto. In words: melting temperature (median over replicates), in situ; higher = more thermally stable.
The subject of data set [3] is HeLa Kyoto. In words: solubility change mitosis vs G1/S (difference of NP-40 vs SDS log2 ratios) (log2 ratio difference); higher = more soluble in mitosis.
Data set [4] relates to HeLa Kyoto. In words: thermal stability score vs G1/S (z-score of summed log2 fold changes over temperatures); higher = more thermally stable than in G1/S.
The mark [5] stands for this setting: cell cycle stage: early G1 (4.5 h after nocodazole release).
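Wherever melting temperature (median over replicates), in situ is given: HeLa Kyoto cells synchronized by double thymidine or nocodazole block, proteins quantified by TMT10plex mass spectrometry, three independent biological replicates.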
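Wherever solubility change mitosis vs G1/S (difference of NP-40 vs SDS log2 ratios) is given: synchronized HeLa Kyoto cells (double thymidine block for G1/S, nocodazole release for mitosis), protein amounts in NP-40 versus SDS lysates quantified by mass spectrometry, three biological replicates.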
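Wherever solubility in G1/S (NP-40 vs SDS abundance) is given: HeLa Kyoto cells arrested at G1/S by double thymidine block, proteins quantified by TMT10plex mass spectrometry in mild NP-40 versus SDS extracts, three biological replicates.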
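Wherever thermal stability score vs G1/S (z-score of summed log2 fold changes over temperatures) is given: synchronized HeLa Kyoto cells, proteins quantified by TMT10plex mass spectrometry, three biological replicates, mitosis taken 0.5 h after nocodazole release, G1/S directly after double thymidine block.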

As for “MRPEPGGCCCRRTVRANGCVANGEVRNGYVRSSAAAAAAAAAGQIHHVTQNGGLYKRPFNEAFEETPMLVAVLTYVGYGVLTLFGYLRDFLRYWRIEKCHHATEREEQKDFVSLYQDFENFYTRNLYMRIRDNWNRPICSVPGARVDIMERQSHDYNWSFKYTGNIIKGVINMGSYNYLGFARNTGSCQEAAAKVLEEYGAGVCSTRQEIGNLDKHEELEELVARFLGVEAAMAYGMGFATNSMNIPALVGKGCLILSDELNHASLVLGARLSGATIRIFKHNNMQSLEKLLKDAIVYGQPRTRRPWKKILILVEGIYSMEGSIVRLPEVIALKKKYKAYLYLDEAHSIGALGPTGRGVVEYFGLDPEDVDVMMGTFTKSFGASGGYIGGKKELIDYLRTHSHSAVYATSLSPPVVEQIITSMKCIMGQDGTSLGKECVQQLAENTRYFRRRLKEMGFIIYGNEDSPVVPLMLYMPAKIGAFGREMLKRNIGVVVVGFPATPIIESRARFCLSAAHTKEILDTALKEIDEVGDLLQLKYSRHRLVPLLDRPFDETTYEETED [SPTLC2]”, the “solubility in G1/S (log2)” value in data set [1] stood at 0.00928. Also, the melting temperature in data set [2] (cell cycle stage: G1/S) is 53 °C; in data set [2] (cell cycle stage: mitosis), 52.7 °C. Besides, the “solubility change mitosis (log2)” value in data set [3] is -0.16. Further, the thermal stability score was 0.665 in data set [4] (setting [5]) and -0.386 in data set [4] (cell cycle stage: mitosis).

With “MAAADAEAVPARGEPQQDCCVKTELLGEETPMAADEGSAEKQAGEAHMAADGETNGSCENSDASSHANAAKHTQDSARVNPQDGTNTLTRIAENGVSERDSEAAKQNHVTADDFVQTSVIGSNGYILNKPALQAQPLRTTSTLASSLPGHAAKTLPGGAGKGRTPSAFPQTPAAPPATLGEGSADTEDRKLPAPGADVKVHRARKTMPKSVVGLHAASKDPREVREARDHKEPKEEINKNISDFGRQQLLPPFPSLHQSLPQNQCYMATTKSQTACLPFVLAAAVSRKKKRRMGTYSLVPKKKTKVLKQRTVIEMFKSITHSTVGSKGEKDLGASSLHVNGESLEMDSDEDDSEELEEDDGHGAEQAAAFPTEDSRTSKESMSEADRAQKMDGESEEEQESVDTGEEEEGGDESDLSSESSIKKKFLKRKGKTDSPWIKPARKRRRRSRKKPSGALGSESYKSSAGSAEQTAPGDSTGYMEVSLDSLDLRVKGILSSQAEGLANGPDVLETDGLQEVPLCSCRMETPKSREITTLANNQCMATESVDHELGRCTNSVVKYELMRPSNKAPLLVLCEDHRGRMVKHQCCPGCGYFCTAGNFMECQPESSISHRFHKDCASRVNNASYCPHCGEESSKAKEVTIAKADTTSTVTPVPGQEKGSALEGRADTTTGSAAGPPLSEDDKLQGAASHVPEGFDPTGPAGLGRPTPGLSQGPGKETLESALIALDSEKPKKLRFHPKQLYFSARQGELQKVLLMLVDGIDPNFKMEHQNKRSPLHAAAEAGHVDICHMLVQAGANIDTCSEDQRTPLMEAAENNHLEAVKYLIKAGALVDPKDAEGSTCLHLAAKKGHYEVVQYLLSNGQMDVNCQDDGGWTPMIWATEYKHVDLVKLLLSKGSDINIRDNEENICLHWAAFSGCVDIAEILLAAKCDLHAVNIHGDSPLHIAARENRYDCVVLFLSRDSDVTLKNKEGETPLQCASLNSQVWSALQMSKALQDSAPDRPSPVERIVSRDIARGYERIPIPCVNAVDSEPCPSNYKYVSQNCVTSPMNIDRNITHLQYCVCIDDCSSSNCMCGQLSMRCWYDKDGRLLPEFNMAEPPLIFECNHACSCWRNCRNRVVQNGLRARLQLYRTRDMGWGVRSLQDIPPGTFVCEYVGELISDSEADVREEDSYLFDLDNKDGEVYCIDARFYGNVSRFINHHCEPNLVPVRVFMAHQDLRFPRIAFFSTRLIEAGEQLGFDYGERFWDIKGKLFSCRCGSPKCRHSSAALAQRQASAAQEAQEDGLPDTSSAAAADPL [EHMT1]”, in data set [1], the “solubility in G1/S (log2)” value is -0.58. The sequence further yielded a melting temperature in data set [2] (cell cycle stage: G1/S) of 50.2 °C. Besides, the “solubility change mitosis (log2)” value in data set [3] is 0.332. Moreover, the figures for the thermal stability score in data set [4] (setting [5]) and in data set [4] (cell cycle stage: mitosis) were 1.22 and 2.18, respectively.

As to “MKMKLFQTICRQLRSSKFSVESAALVAFSTSSYSCGRKKKVNPYEEVDQEKYSNLVQSVLSSRGVAQTPGSVEEDALLCGPVSKHKLPNQGEDRRVPQNWFPIFNPERSDKPNASDPSVPLKIPLQRNVIPSVTRVLQQTMTKQQVFLLERWKQRMILELGEDGFKEYTSNVFLQGKRFHEALESILSPQETLKERDENLLKSGYIESVQHILKDVSGVRALESAVQHETLNYIGLLDCVAEYQGKLCVIDWKTSEKPKPFIQSTFDNPLQVVAYMGAMNHDTNYSFQVQCGLIVVAYKDGSPAHPHFMDAELCSQYWTKWLLRLEEYTEKKKNQNIQKPEYSE [MGME1]”, in data set [1], the “solubility in G1/S (log2)” value was 0.384. In addition, the values for the melting temperature in data set [2] (cell cycle stage: G1/S) and in data set [2] (cell cycle stage: mitosis) were 52.9 °C and 53.5 °C, respectively. Further, the “solubility change mitosis (log2)” value in data set [3] was determined as 0.0664. Besides, the thermal stability score was -0.736 in data set [4] (setting [5]) and -1.05 in data set [4] (cell cycle stage: mitosis).

As to “MDIRKFFGVIPSGKKLVSETVKKNEKTKSDEETLKAKKGIKEIKVNSSRKEDDFKQKQPSKKKRIIYDSDSESEETLQVKNAKKPPEKLPVSSKPGKISRQDPVTYISETDEEDDFMCKKAASKSKENGRSTNSHLGTSNMKKNEENTKTKNKPLSPIKLTPTSVLDYFGTGSVQRSNKKMVASKRKELSQNTDESGLNDEAIAKQLQLDEDAELERQLHEDEEFARTLAMLDEEPKTKKARKDTEAGETFSSVQANLSKAEKHKYPHKVKTAQVSDERKSYSPRKQSKYESSKESQQHSKSSADKIGEVSSPKASSKLAIMKRKEESSYKEIEPVASKRKENAIKLKGETKTPKKTKSSPAKKESVSPEDSEKKRTNYQAYRSYLNREGPKALGSKEIPKGAENCLEGLIFVITGVLESIERDEAKSLIERYGGKVTGNVSKKTNYLVMGRDSGQSKSDKAAALGTKIIDEDGLLNLIRTMPGKKSKYEIAVETEMKKESKLERTPQKNVQGKRKISPSKKESESKKSRPTSKRDSLAKTIKKETDVFWKSLDFKEQVAEETSGDSKARNLADDSSENKVENLLWVDKYKPTSLKTIIGQQGDQSCANKLLRWLRNWQKSSSEDKKHAAKFGKFSGKDDGSSFKAALLSGPPGVGKTTTASLVCQELGYSYVELNASDTRSKSSLKAIVAESLNNTSIKGFYSNGAASSVSTKHALIMDEVDGMAGNEDRGGIQELIGLIKHTKIPIICMCNDRNHPKIRSLVHYCFDLRFQRPRVEQIKGAMMSIAFKEGLKIPPPAMNEIILGANQDIRQVLHNLSMWCARSKALTYDQAKADSHRAKKDIKMGPFDVARKVFAAGEETAHMSLVDKSDLFFHDYSIAPLFVQENYIHVKPVAAGGDMKKHLMLLSRAADSICDGDLVDSQIRSKQNWSLLPAQAIYASVLPGELMRGYMTQFPTFPSWLGKHSSTGKHDRIVQDLALHMSLRTYSSKRTVNMDYLSLLRDALVQPLTSQGVDGVQDVVALMDTYYLMKEDFENIMEISSWGGKPSPFSKLDPKVKAAFTRAYNKEAHLTPYSLQAIKASRHSTSPSLDSEYNEELNEDDSQSDEKDQDAIETDAMIKKKTKSSKPSKPEKDKEPRKGKGKSSKK [RFC1]”, the “solubility in G1/S (log2)” value in data set [1] was -0.641. In addition, the melting temperature came to 47.2 °C in data set [2] (cell cycle stage: G1/S) and 49.5 °C in data set [2] (cell cycle stage: mitosis). In data set [3], the “solubility change mitosis (log2)” value came to 0.447. Besides, the thermal stability score was 3.61 in data set [4] (setting [5]) and 4.94 in data set [4] (cell cycle stage: mitosis).
